B1: TPR 5TU (parent)
chain: GGAUCUUCUCGAUCUAACAAAAAAGACAAAUCUGCCACAAAGCUUGAGAGCAUCUUCGGAUGCAGAGGCGGCAGCCUUCGGUGGCGCGAUAGCGCCAACGUUCUCAACUAUGACACGCAAAACGCGUGCUCCGUUGAAUGGAGUUUAUCAUG

Variants at the floor of the assay were thinned out. Bounds are passed on as bounds.

The data set covers variants of B1. In words: polymerase ribozyme fitness, log enrichment relative to wild type (log ratio); higher = more active; in vitro selection for triplet polymerase activity. A digest of the protocol:
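Mutant libraries of both subunits of a heterodimeric triplet polymerase ribozyme were PCR-built, transcribed, and selected once in triplicate, with frozen incubation at −7 °C and capture of gel-excised extended constructs on streptavidin beads before RT-PCR. Illumina sequencing of input and output libraries was filtered to genotypes with ≥10 input reads and ≥1 read per output. Fitness is the logarithm of genotype enrichment over wild-type enrichment, using inverse-variance-weighted replicate averages. The logarithm is base 2.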
For the variant A21U C69A G88U A97C, the “polymerase ribozyme fitness (log ratio)” value was at most -4.2.
Take A21G G80A C99G A119U: the “polymerase ribozyme fitness (log ratio)” value was -0.387.
In the case of A21U A22G A60G C132G U144C it was -4.13; in that of A21C G68C C69A C93G U144G, at most -4.2.
In the case of A21U U55G G70A C93A it was at most -4.2.
The same measure for A21G C75U A98G C99G C114U: at most -4.2.
With A21G A24G C51U U104G A113U, the “polymerase ribozyme fitness (log ratio)” value is at most -4.2.
Turning to A21C G83C C87A G92U C116G, the “polymerase ribozyme fitness (log ratio)” value was -1.27.
The same measure for A21G A40C G86U A119G A150C: at most -4.2; for A21U A41G A60U C85U C103G C123A: -3.69.
As to A21U C79U C93G, the “polymerase ribozyme fitness (log ratio)” value is at most -4.2.
In the case of A21C G94C C116U it was 0.209.
In the case of A21C G59A, the “polymerase ribozyme fitness (log ratio)” value is -0.0146.
For A21G U31A C95A, the “polymerase ribozyme fitness (log ratio)” value is 0.669.
Take A21C C35U C75U G92C C96A C108U C131U A142C: the “polymerase ribozyme fitness (log ratio)” value is at most -4.2.
Take A21G U53A A60U C96U C99G A110G: the “polymerase ribozyme fitness (log ratio)” value was at most -4.2.
The same measure for A21U C38A G81A: 0.0427; for A21U C36A G80A G88A G100U G124C G133A G143C U148A: at most -4.2; for A21C G84A C95A U104C: -0.91.
Consider A21C U56G A89C C96A C116G A119C, for which the “polymerase ribozyme fitness (log ratio)” value is -2.02.
The same measure for A21G C99U: 0.465.
The same measure for A21U A30C C51U G71U C85U: at most -4.2; for A21G C96U: 0.682.
For the variant A21G C96G, the “polymerase ribozyme fitness (log ratio)” value came to 0.474.
Regarding A22C A37U U61G C85G A91U U146A, the “polymerase ribozyme fitness (log ratio)” value is at most -4.2.
The same measure for A21U A41U U55G G83A U145A: -2.5; for A21G A24C U31C C69G U148C: at most -4.2; for A21U A113U A137G U144A: -3.99.
Regarding A21U G71C C79G A107U A142C, the “polymerase ribozyme fitness (log ratio)” value was at most -4.2.
Turning to A21U A24C U56A C96U A138U, the “polymerase ribozyme fitness (log ratio)” value was at most -4.2.
In the case of A21G A106C it was -0.348; in that of A21G U77A A91G, at most -4.2.
The same measure for A21G A22U A24G A39U C87A C96A U148C: at most -4.2; for A22C A26C A49C U56A G59U G68U C85U G86U G94U A97G U134A: at most -4.2.
Consider A21U A91G, for which the “polymerase ribozyme fitness (log ratio)” value was -2.85.
The same measure for A21C G25A C63G: -3.29.
In the case of A21C G34C A39U U55A C95G U104A A119G U144G U146A it was at most -4.2; in that of A21C C93A U104A G141C U144G G152A, at most -4.2.
For the variant A21U C51U C93G C105U A120G, the “polymerase ribozyme fitness (log ratio)” value was -3.58.
Consider A21U A29U U33G C35U G81U G84A, for which the “polymerase ribozyme fitness (log ratio)” value was -4.1.
The same measure for A22C A47C C51G A64G C72A C95U A107G A113U U135A: at most -4.2.
As to A21G G68C C85A G92A G128U, the “polymerase ribozyme fitness (log ratio)” value was at most -4.2.
In the case of A21U G42C U44A U53A U55A C87U it was at most -4.2; in that of A21C C85U A138U, at most -4.2.
The same measure for A21C U33G C87U U145A A150U: at most -4.2; for A22C A52C G81U: -1.38; for A21C C95U C129A: -2.89.
With A21G G25A U56A C93U A119G A120C U146C, the “polymerase ribozyme fitness (log ratio)” value is -3.11.
Take A21U A29U U61A: the “polymerase ribozyme fitness (log ratio)” value was at most -4.2.
As to A21U G25C A29U U33A A37U A66C G70C G88U G124U, the “polymerase ribozyme fitness (log ratio)” value was at most -4.2.
For the variant A22C A41U U53C C75U, the “polymerase ribozyme fitness (log ratio)” value was -2.58.
Consider A21U A49G U55A G84A U104C A137U G140C A150C, for which the “polymerase ribozyme fitness (log ratio)” value was at most -4.2.
In the case of A21G G81A C95U A107G A119C G141U it was at most -4.2.
The same measure for A21G A39U C75U U82A C87A A98G C118U C125U: at most -4.2; for A21C C35A G84A G117A U127G: at most -4.2; for A21U A26C G141A: -3.34.
Consider A21U C38U C95U A106U U144C, for which the “polymerase ribozyme fitness (log ratio)” value was -2.96.
In the case of A22C A41C A49C U53A G67U G117A C131A it was at most -4.2.
Take A21U A26U C57U G84U: the “polymerase ribozyme fitness (log ratio)” value is -3.6.
In the case of A21C C93A C99U G136U A142U it was at most -4.2; in that of A21G C27A G46A A73G C87A, at most -4.2; in that of A21U G62C A66C G83U A91U G152A, at most -4.2.
The same measure for A21U A40C: 1.56.
For A21U G141U, the “polymerase ribozyme fitness (log ratio)” value amounted to 1.9.
The same measure for A21U G141C: 0.187; for A21U C118U A119G: -3.17; for A22C A23G G62A A91G A98U C114A U146A: at most -4.2.
In the case of A21C C85U it was -0.369.
For the variant A21C G50A C96U C125G, the “polymerase ribozyme fitness (log ratio)” value was -1.98.
In the case of A22C A49C G84C G94U it was at most -4.2; in that of A21U A26U A28U G67A G88A A122U, at most -4.2; in that of A21U A26G G71A C125U, at most -4.2.
The same measure for A21C A137G: -0.909; for A21U U33G C72A C95U A122U: at most -4.2.
As for A22C A28U A121U, the “polymerase ribozyme fitness (log ratio)” value is at most -4.2.
Take A21G G58C: the “polymerase ribozyme fitness (log ratio)” value turned out to be 0.298.
In the case of A21U G88A it was -3.62; in that of A21C U134A, -1.79.
Regarding A21G G42U C54A C72U C76U C79U G84U, the “polymerase ribozyme fitness (log ratio)” value was at most -4.2.
For the variant A21G G50C G71C C79A C95G A121U U127G G136U U139C A142C U145G, the “polymerase ribozyme fitness (log ratio)” value is at most -4.2.
For the variant A21U C96U A97U U127C U139G, the “polymerase ribozyme fitness (log ratio)” value was -2.62.
Turning to A21G G48A C54U G92A, the “polymerase ribozyme fitness (log ratio)” value is at most -4.2.
A21G G143A: the “polymerase ribozyme fitness (log ratio)” value is -0.569.
For the variant A21U G46U U55A C85G A106G C116A, the “polymerase ribozyme fitness (log ratio)” value is -1.91.

For the origin of these results see the RNAGym collection of RNA variant scans (doi:10.1073/pnas.2313332121).
